These results are taken from patent US9969998B2, “Compositions of adenosine deaminase-2 (ADA2), variants thereof and methods of using same” (Halozyme, Inc., priority 2014, dated 2018).

Changes are numbered by the printed parent chain. Names may count otherwise.

Data set [1] in a line: Distribution of labeled PEG-ADA2-K374D in CT26 peritibial tumors (IVIS fluorescent imaging). It is filed as in vivo, Balb/C mice. Conditions: for Fluorescent intensity at tumor: 0.5 mg/kg IV. The method, then:
To assess the distribution and elimination of administered PEG-ADA2-K374D in the tumor microenvironment or in normal organs, immunofluorescence was used to assess the presence of PEG-ADA2-K374D administered to mice. PEG-ADA2-K374D was labeled at room temperature for 60 minutes with DyLight755 Sulfydryl-Reactive Dye (DL755), a near-IR fluor, using the DyLight 755 Antibody Labeling Kit (Thermo Scientific, Rockford, Ill.). Alexa Fluor 750 (AF 750) labeled bovine serum albumin (BSA, 1 mg/mL) was purchased from (Life Technology, Carlsbad, Calif.).
CT26 syngeneic tumors were produced by injecting 2×10^5 cells in 0.05 mL injection volume per animal into the right peritibial muscle of male Balb/C mice. When average tumor size reached 600 mm^3, tumor-bearing mice were staged into 2 groups (n=4/group) to receive either PEG-ADA2-K374D^DL755 at 0.5 mg/kg or BSA^AF750 at 0.5 mg/kg intravenously. The distribution of DL755 labeled PEG-ADA2-K374D (PEG-ADA2-K374D^DL755) and AF 750 labeled BSA (BSA^AF750) in mouse tumors was assessed using the IVIS Caliper fluorescent imaging system with an excitation wavelength of 745 nm and an emission wavelength of 800 nm (Caliper Life Sciences, Alameda, Calif.) and signal intensity was measured with LivingImage software. Images were captured before administration of labeled proteins and at 10 minute, 2, 6 hours and daily after administration of labeled proteins.

The nature of data set [2]: Heparin binding ELISA (heparin coated microtiter plate). To be noted: single and S265N combination variants (Table 34). As for the experimental part: A 96-well plate was coated with 100 μL of 200 μg/mL heparin sodium salt (Calibochem, EMD Milipore, Billerica, Mass.; Cat. No. 375095) in Na2CO3 buffer (pH 9.6), overnight at 4° C. The wells were blocked with 5% milk in PBS, and washed 6 times with PBS. 3 μM of select rHuADA2 variants (see Table 20), WT rHuADA2 (positive control) and WT rHuADA1 (negative control) were added to the wells individually and incubated for 2 hours at room temperature, followed by washing 6 times with PBS. 100 μL of 1:1000 diluted horseradish peroxidase (HRP)-anti-FLAG antibody (Abcam, Cambridge, UK; Cat. No. Ab1238) was added to the wells to detect binding and incubated at room temperature for 1 hour. The ELISA reactions were developed by adding the 3,3′,5,5′-Tetramethylbenzidine (TMB) substrate solution (Pierce, Thermo Fisher Scientific, Rockford, Ill.) according the manufacturer's instructions and reading the optical density at 450 nm (OD450) on a plate reader.

The nature of data set [3]: Spectrophotometric adenosine deaminase assay at varying pH (pH optimum). It is filed as biochemical. The method, then: Adenosine deaminase activity of rHuADA2 and variants at varying pH were assessed to determine the pH optimum of each. The adenosine deaminase activity was determined spectrophotometrically by direct measurement of changes in adenosine absorbance. […] During the deamination reaction, the absorbance of ADO decreases while that of INO increases with time. Since the dynamic changes in absorbance make it difficult to monitor activity at a single wavelength, the relative ADO activity was determined as a ratio of the ADO peak to isobestic point (i.e. the wavelength where ADO and INO have the same extinction coefficient). The isobestic point, which is 253 nm, remains unchanged and is concentration independent, so that it is the reference point to correct for volume or intensity discrepancies.
To construct the standard curve for ADO and INO, a series of solution mixtures in 0.001% Tween-20 containing different concentrations of ADO and INO were prepared. The total concentration of ADO and INO mix was 50 μM, in 1×PBS (10 mM phosphate, 137 mM NaCl, 2.7 mM KCl), pH 7.4. The samples were scanned with the wavelengths between 220 nm and 300 nm to determine the isosbestic point, where all spectra cross.
For performing the spectrophotometric adenosine deaminase assay of ADA2 and variants, a 2× solution containing 10 mM ADO in 100 mM potassium phosphate buffer (KPB), 0.1% Tween-20 at different pHs (i.e. 5.5, 6, 6.5, 6.75, 7, 7.25, 7.4, 7.75 and 8) were prepared. A separate 2× solution containing 2 μg/mL WT rHuADA2 or variants were prepared in the same 100 mM potassium phosphate buffer (KPB), 0.1% Tween-20 at the respective pH (i.e. 5.5, 6, 6.5, 6.75, 7, 7.25, 7.4, 7.75 and 8). An equal volume of the ADO solution and the ADA2 solution (wildtype or variants) were mixed to initiate reaction. At each time point (i.e. 1, 3, 5, 7, 9, 11, 13 and 15 min), a small aliquot (4 μl) was removed and diluted 50 times by adding to 196 μl 1×PBS, pH 7.4. The diluted samples were further diluted 2 fold (in duplicates) by adding 85 μl samples to 85 μl 1×PBS in a UV-transparent half area plate. The absorbance at 253 nm and 261 nm were measured of each diluted sample.
Adenosine concentration was determined using the A261/A253 ratio and the standard curve. Adenosine deaminase activity was measured by negative change in ADO concentration per min×100.

A short description of data set [4]: Kinetic assessment of adenosine deaminase activity (ammonia assay, Michaelis-Menten). The format is biochemical. To be noted: [E] = 8.5 nM; for kcat: kcat=Vmax/0.0085/60. The method, boiled down: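 Coupled ammonia assay: rHuADA2 WT or variants (1 μg/mL, 17 nM in 2× mix) with adenosine 20 μM–20 mM, α-ketoglutarate, NADPH and GDH, at pH 7.6 or pH 6.5 (PIPES), room temperature. Michaelis-Menten fit gave Km, Vmax, kcat, kcat/Km.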

Data set [5] is described as follows: Thermal stability by differential scanning fluorimetry (DSF). The format is physicochemical. To be noted: 0.1-1 mg/mL protein. As for the experimental part: The stability of the rHuADA2 WT and variants was measured by differential scanning fluorimetry (DSF) at increasing temperatures. DSF measures conformational stability, which correlates with thermal stability. The melting temperature (Tm) in DSF is defined as the midpoint of the protein unfolding transition.
Non-PEGylated WT rHuADA2, non-PEGylated rHuADA2 variants, and PEGylated forms of WT rHuADA2 and rHuADA2 variants were prepared at concentrations of 0.1-1 mg/mL and mixed with the ROX™ protein thermal shift dye (Applied Biosystems, Carlsbad, Calif.; Cat. No. 4461146) to a final dye concentration that corresponds to a 125-fold dilution of the stock ROX™ solution. Protein samples were then loaded into 96-well plate at a volume of 20 μL/well in triplicate. A ViiA7 RT-PCR System (Applied Biosystems, Carlsbad, Calif.) was used to measure the shift in fluorescence as the temperature of the samples were increased. The reactions were subjected to the following steps: incubation at 25° C. for 2 min; ramping of temperature from 25 to 99° C. at a rate of 0.05° C. per second; followed by a 99° C. incubation for 2 min. The wavelengths used for emission and excitation were 623 nanometers (nm) and 580 nm, respectively.

Turning to “BSA^AF750: Alexa Fluor 750 (AF 750) labeled bovine serum albumin, control agent”, the “Fluorescent intensity at tumor” value in data set [1] (Hour 0.2) was 2.95E+09; in data set [1] (Hour 2), 3.92E+09; in data set [1] (Hour 6) it was 4.64E+09; in data set [1] (Hour 24), 3.18E+09; in data set [1] (Hour 48) it was 1.94E+09; in data set [1] (Hour 72) it was 1.30E+09. Also, the “Fluorescent intensity at tumor” value was 9.86E+08 in data set [1] (Hour 96); 7.78E+08 in data set [1] (Hour 144); 6.39E+08 in data set [1] (Hour 168); 6.59E+08 in data set [1] (Hour 196); 7.86E+08 in data set [1] (Hour −1 (before administration)). In data set [1] (day 6 post injection, 0.5 mg/kg intravenously), this molecule returned an eliminated from tumors of roughly 100%.

B1: S265N/K374D: ADA2 combination variant SEQ ID NO:59 (protein)
chain: IDETRAHLLLKEKMMRLGGRLVLNTKEELANERLMTLKIAEMKEAMRTLIFPPSMHFFQAKHLIERSQVFNILRMMPKGAALHLHDIGIVTMDWLVRNVTYRPHCHICFTPRGIMQFRFAHPTPRPSEKCSKWILLEDYRKRVQNVTEFDDSLLRNFTLVTQHPEVIYTNQNVVWSKFETIFFTISGLIHYAPVFRDYVFRSMQEFYEDNVLYMEIRARLLPVYELSGEHHDEEWSVKTYQEVAQKFVETHPEFIGIKIIYNDHRSKDVAVIAESIRMAMGLRIKFPTVVAGFDLVGHEDTGHSLHDYKEALMIPAKDGVKLPYFFHAGETDWQGTSIDRNILDALMLNTTRIGHGFALSKHPAVRTYSWDKDIPIEVCPISNQVLKLVSDLRNHPVATLMATGHPMVISSDDPAMFGAKGLSYDFYEVFMGIGGMKADLRTLKQLAMNSIKYSTLLESEKNTFMEIWKKRWDKFIADVATK
modifications: human ADA2 S262N/K371D, mature numbering
For orientation: Km means the substrate concentration at which the rate is half of its maximum. The term Vmax denotes the top rate of the reaction or transport when substrate is in excess. Broadly, the kcat is the maximal rate divided by the concentration of active sites. As for B1, the “Heparin Binding ELISA Average OD450” value in data set [2] amounted to 0.92. Besides, the “Adenosine deaminase activity Δ [ADO]/min × (−100)” value (“Adenosine deaminase activity Δ” below) was determined as 22.89 in data set [3] (pH 5.5); 33.51 in data set [3] (pH 6); 39.06 in data set [3] (pH 6.5); 41.58 in data set [3] (pH 6.75); 45.98 in data set [3] (pH 7); 42.69 in data set [3] (pH 7.25). Also, the “Adenosine deaminase activity Δ” value in data set [3] (pH 7.4) worked out at 43.37; in data set [3] (pH 7.75), 22.29; in data set [3] (pH 8), 4.36. Also, the Km in data set [4] (pH 6.5) came out at 1510 µM; in data set [4] (pH 7.6), 2860 µM. The Vmax was determined as 43.85 µM/min in data set [4] (pH 6.5) and 78.29 µM/min in data set [4] (pH 7.6). Further, the results for the kcat in data set [4] (pH 6.5) and in data set [4] (pH 7.6) were 85.98 s⁻¹ and 153.51 s⁻¹, respectively. Also, the “Tm, melting temperature by DSF” value in data set [5] turned out to be 60.8 °C.

B2: S265N/R23E/K374D: ADA2 combination variant SEQ ID NO:62 (protein)
chain: B1 chain with R20E
modifications: human ADA2 S262N/R20E/K371D, mature numbering
For the molecule B2, in data set [2], the “Heparin Binding ELISA Average OD450” value is listed as 0.69. Besides, the “Adenosine deaminase activity Δ” value is 20.27 in data set [3] (pH 5.5); 28.16 in data set [3] (pH 6); 35.51 in data set [3] (pH 6.5); 33.24 in data set [3] (pH 6.75); 40.08 in data set [3] (pH 7); 42.28 in data set [3] (pH 7.25). Further, the “Adenosine deaminase activity Δ” value came to 34.66 in data set [3] (pH 7.4), 18.46 in data set [3] (pH 7.75) and 4.94 in data set [3] (pH 8). Further, the Km in data set [4] (pH 6.5) came to 1500 µM; in data set [4] (pH 7.6) it was 3130 µM. Besides, the maximal velocity (Vmax) was 43.42 µM/min in data set [4] (pH 6.5) and 72.78 µM/min in data set [4] (pH 7.6). For the same molecule, the turnover number (kcat) in data set [4] (pH 6.5) amounted to 85.14 s⁻¹; in data set [4] (pH 7.6) it was 142.71 s⁻¹. The “Tm, melting temperature by DSF” value in data set [5] was 59.8 °C.
